Patent US20240377400A1, “METHODS FOR TREATING A SUBTYPE OF COLORECTAL CANCER” (Cornell University, priority 2021, published 2024)
Entries after “also recorded” stand apart in the source; their conditions may differ.

How the values were obtained:
pancreatic cancer = pancreatic cancer patients; cited from earlier work
[1] = system: Prkci^fl/flPrkcz^fl/fl; Villin-Cre tumors; assay: scRNAseq, CellphoneDB and multiplex staining of Prkci^fl/flPrkcz^fl/fl; Villin-Cre tumors treated with PEGPH20; format: in vivo, mouse
Excerpt: FIG. 10A illustrates experimental design and workflow of scRNAseq. Tumors from Veh (n=5) and PEGPH20-treated mice (n=3) were dissected and digested into single-cell suspensions for sequencing.
Primary antibody dilutions were optimized individually at H220 retrieval using the Leica BondRx Automated IHC stainer and evaluated by a board-certified pathologist for specificity. Multiplexed staining was optimized and then performed using the Automated Opal 7-Color IHC Kit (NEL821001KT) from Akoya Biosciences. A library for spectral separation was generated by staining control tissue with each opal fluor conjugated to CD20. Slides were imaged in the Vectra Polaris Automated Quantitative Pathology Multispectral Imaging System. Exposure times were maximized under the constraint that no pixel saturates the detector (Patel and Rodig, 2020; Patel et al., 2019).
Tumors were minced thoroughly and digested by 0.5 mg/ml Liberase TH (Sigma) for 30 minutes at 37° C. Dead cells were removed by Annexin V (STEMCELL technologies). scRNAseq libraries were generated using the Chromium Single Cell 30 Reagent Kit v2 (10× Genomics). Cells were loaded onto the 10× Chromium Single Cell Platform (10× Genomics) at a concentration of 2,000 cells per μl (Single Cell 3′ library and Gel Bead Kit v.2) as described in the manufacturer's protocol (10× User Guide, Revision B). Generation of gel beads in emulsion (GEMs), barcoding, GEM-RT clean-up, complementary DNA amplification and library construction were all performed as per the manufacturer's protocol. Individual sample quality was checked using a Bioanalyzer Tapestation (Agilent). Qubit was used for library quantification before pooling. The final library pool was sequenced on an Illumina NovaSeq6000 instrument using a S1 flow cell. Average cell recovery for Prkci^f/fPrkcz^f/f; Villin-Cre tumors was […] with a total of 209,907 cells captured at a mean depth of 14,568 read per cell and 895 mean genes per cell.
For scRNA-seq, raw sequence reads were quality-checked using FastQC software. The Cell Ranger version 2.1.1 software suite from 10× Genomics (https://support.10× genomics.com/single-cell-gene-expression/software/downloads/latest) was used to process, align, and summarize unique molecular identifier (UMI) counts against the mouse mm10 assembly reference genome analysis set, obtained from the University of California Santa Cruz (UCSC). Raw, unfiltered count matrices were imported into R for further processing. Raw UMI count matrices were filtered using the Seurat v 3.0 R package (Butler et al., 2018) to remove: barcodes with very low (less than 200, empty wells) and very high (more than 3000, probably doublets) total UMI counts; matrices for which a high percentage of UMIs originated from mitochondrial features (more than 12%); and matrices for which fewer than 250 genes were expressed. Subsequently, the data were normalized using the SCTransform function, regressing out the following variables: total number of UMIs per cell and percentage of mitochondrial UMIs. Following normalization, the principal components were computed. The top principal components were identified using the ElbowPlot function and used for the UMAP dimensionality reduction. For clustering, Seurat was used in combination with Harmony software (Korsunsky et al., 2019) to correct the potential effects of technical differences between sequencing batches. The RunHarmonyo, RunUMAP( ), FindNeighbors( ), and FindClusters( ) functions were run for clustering and the percentage of mitochondrial features was considered to be a source of unwanted variation and was regressed out using the Seurat package. […] For the differential gene expression analysis, the FindMarker( ) function with default parameters was run for comparison between populations. The cell groups were annotated based on the marker gene analysis and canonical markers from the literature. […]

[2] = scRNAseq tumor epithelial cells

B1: PEGPH20: a PEGylated version of human recombinant PH20 hyaluronidase; clinical-grade pegylated hyaluronidase (Halozyme Therapeutics) (protein, UniProt P38567 36-490, looked up)
Hyaluronidase PH-20: LNFRAPPVIPNVPFLWAWNAPSEFCLGKFDEPLDMSLFSFIGSPRINATGQGVTIFYVDRLGYYPYIDSITGVTVNGGIPQKISLQDHLDKAKKDITFYMPVDNLGMAVIDWEEWRPTWARNWKPKDVYKNRSIELVQQQNVQLSLTEATEKAKQEFEKAGKDFLVETIKLGKLLRPNHLWGYYLFPDCYNHHYKKPGYNGSCFNVEIKRNDDLSWLWNESTALYPSIYLNTQQSPVAATLYVRNRVREAIRVSKIPDAKSPLPVFAYTRIVFTDQVLKFLSQDELVYTFGETVALGASGIVIWGTLSIMRSMKSCLLLDNYMETILNPYIINVTLAAKMCSQVLCQEQGVCIRKNWNSSDYLHLNPDNFAIQLEKGGKFTVRGKPTLEDLEQFSEKFYCSCYSTLSCKEKADVKDTDAVDVCIADGVCIDAFLKPPMETEEPQIFYNASPSTLS
modifications: PEGylated
duration of response or progression-free or overall survival (pancreatic cancer): no improvement | response rate in the experimental arm (pancreatic cancer): higher | TGFβ signals provided by myeloid cells and CD4+ Tregs ([1]; CellphoneDB): reduced | communications between TRSC and trophocytes ([1]; CellphoneDB): induced a high number | interaction between Spp1-Ptger4/Cd44 in fibroblasts and Spp1 interactions between telocytes and CD4+ Tregs ([1]; CellphoneDB): eliminates | interactions between TFSCs and telocytes ([1]; CellphoneDB): switching off | secretion of Ccl27a in TRSCs, Ccl28 in TcTAs and residual TFSCs, Ccl25 in TcTAs and TFSCs ([1]; CellphoneDB): increased | secretion of growth signals from telocytes to myeloid cells and CD4+ Tregs ([1]; CellphoneDB): repressed | Rspo1/3 in trophocytes ([1]; CellphoneDB, interact with Lgr5 in TRSC): enriched | presence of TFSCs (ANXA10+ staining) ([1]; IHC): strongly reduced | presence of TRSCs (CLU+ staining) ([1]; IHC): not reduced | ANXA10+/Alcian Blue and ANXA10+/MUC2+ TGCs ([1]; IHC and multiplex imaging): reduced | flow from TcTA to TFSC ([1]; RNA velocity trajectory analysis): total disruption | myeloid cells and CD4+ Tregs in tumors ([1]; VECTRA multiplex imaging): concomitant reduction | B, plasma, and CD8+ T cells infiltrating the tumors ([1]; VECTRA multiplex imaging, CD138 staining): allows CD8+ T cell infiltration; also recorded: strong recruitment | collagens, matrix metalloproteinases, and signatures related to matrix remodeling in the intermediate fibroblasts ([1]; differential gene expression): substantial reduction | vessel normalization signature ([1]; endothelial compartment): increased | angiogenesis, glycolysis, and hypoxia signatures ([1]; endothelium compartment): reduced | signatures related to interferon activation ([1]; endothelium compartment): increased | trophocyte levels (PDGRA−/CD31−/CD34+) ([1]; immunofluorescence, mainly at the crypt-bottom positions): strongly increased | PDGFRA+/NRG1+ fibroblasts at the luminal border ([1]; multiplex immunofluorescence): significantly reduced | expression of several ICIs, including Ctla4, in CD4+ Tregs ([1]; scRNAseq): higher expression | Cd47 immune checkpoint inhibitor expression ([1]; scRNAseq / CellphoneDB): clear increase | signatures corresponding to CD8+ T cells exhaustion, stem-like, and expansion ([1]; scRNAseq CD8+ T cells): enrichment | CD4+ Treg cells ([1]; scRNAseq T cells): reduced | CD8+/Treg ratio ([1]; scRNAseq T cells): increased | proportion of CD8+ Trm and CD8+ Tex cells ([1]; scRNAseq T cells): increased | proportion of tip cells and postcapillary and immature endothelial cells ([1]; scRNAseq endothelial compartment): reduced | proportion of intermediate fibroblast ([1]; scRNAseq fibroblasts): not affected | trophocytes ([1]; scRNAseq fibroblasts): concomitant accumulation | telocyte population ([1]; scRNAseq fibroblasts, HA degradation in vivo): virtually eliminated | proportion of TGCs ([1]; scRNAseq goblet cells): strongly reduced | levels of myeloid cell types (TAN, TAM, IM) ([1]; scRNAseq immune cells): reduced | proportion of T and B cells ([1]; scRNAseq immune cells): increased | proportion of TFSCs [1, 2]: clear reduction | proportion of TRSCs in the persistent tumor cell population [1, 2]: relative enrichment | proportion of TcTAs [1, 2]: limited proportional reduction | vessel disorganization signature ([1]; whole endothelial compartment): reversed
